# Measurements from the supplement of paper PMC5998384.
# How the values were obtained:
# HeLa Kyoto [1] = experiment: solubility in G1/S (NP-40 vs SDS abundance) (log2 ratio); higher = more soluble; details: cell cycle stage: G1/S
# HeLa Kyoto [2] = experiment: melting temperature (median over replicates), in situ; higher = more thermally stable
# HeLa Kyoto [3] = experiment: solubility change mitosis vs G1/S (difference of NP-40 vs SDS log2 ratios) (log2 ratio difference); higher = more soluble in mitosis
# HeLa Kyoto [4] = experiment: thermal stability score vs G1/S (z-score of summed log2 fold changes over temperatures); higher = more thermally stable than in G1/S
# [5] = cell cycle stage: early G1 (4.5 h after nocodazole release)
# 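For melting temperature (median over replicates), in situ in this document: HeLa Kyoto cells synchronized by double thymidine or nocodazole block, proteins quantified by TMT10plex mass spectrometry, three independent biological replicates.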
# 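For solubility change mitosis vs G1/S (difference of NP-40 vs SDS log2 ratios) in this document: synchronized HeLa Kyoto cells (double thymidine block for G1/S, nocodazole release for mitosis), protein amounts in NP-40 versus SDS lysates quantified by mass spectrometry, three biological replicates.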
# 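For solubility in G1/S (NP-40 vs SDS abundance) in this document: HeLa Kyoto cells arrested at G1/S by double thymidine block, proteins quantified by TMT10plex mass spectrometry in mild NP-40 versus SDS extracts, three biological replicates.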
# 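For thermal stability score vs G1/S (z-score of summed log2 fold changes over temperatures) in this document: synchronized HeLa Kyoto cells, proteins quantified by TMT10plex mass spectrometry, three biological replicates, mitosis taken 0.5 h after nocodazole release, G1/S directly after double thymidine block.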
# Chain of ITCH (chain, as listed by the source): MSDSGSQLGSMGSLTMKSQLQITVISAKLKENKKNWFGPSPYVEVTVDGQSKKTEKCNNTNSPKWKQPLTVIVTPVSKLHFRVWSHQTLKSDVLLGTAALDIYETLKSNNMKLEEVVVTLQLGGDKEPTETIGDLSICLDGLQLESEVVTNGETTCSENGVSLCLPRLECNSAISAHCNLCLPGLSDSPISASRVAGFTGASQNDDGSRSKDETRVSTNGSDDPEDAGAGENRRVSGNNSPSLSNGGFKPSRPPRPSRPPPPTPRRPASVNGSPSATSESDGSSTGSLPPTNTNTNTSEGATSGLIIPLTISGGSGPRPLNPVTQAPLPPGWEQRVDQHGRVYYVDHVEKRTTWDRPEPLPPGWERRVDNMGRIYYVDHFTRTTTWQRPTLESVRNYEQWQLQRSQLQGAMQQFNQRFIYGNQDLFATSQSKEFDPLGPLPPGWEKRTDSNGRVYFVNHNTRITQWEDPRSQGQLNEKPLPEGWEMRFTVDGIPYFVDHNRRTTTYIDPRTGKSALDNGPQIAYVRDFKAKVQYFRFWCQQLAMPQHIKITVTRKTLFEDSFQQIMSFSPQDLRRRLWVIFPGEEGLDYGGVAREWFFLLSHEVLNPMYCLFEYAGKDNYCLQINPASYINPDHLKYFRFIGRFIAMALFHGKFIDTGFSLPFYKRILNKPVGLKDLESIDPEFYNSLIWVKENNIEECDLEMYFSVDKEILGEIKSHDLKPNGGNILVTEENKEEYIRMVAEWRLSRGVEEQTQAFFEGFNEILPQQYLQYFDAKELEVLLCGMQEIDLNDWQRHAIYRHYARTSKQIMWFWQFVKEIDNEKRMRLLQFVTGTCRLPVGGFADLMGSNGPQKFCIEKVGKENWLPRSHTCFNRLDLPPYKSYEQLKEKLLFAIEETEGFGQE
Substance,solubility in G1/S (log2) (HeLa Kyoto [1]),melting temperature (HeLa Kyoto [2]; cell cycle stage: G1/S) [°C],melting temperature (HeLa Kyoto [2]; cell cycle stage: mitosis) [°C],solubility change mitosis (log2) (HeLa Kyoto [3]),thermal stability score (HeLa Kyoto [4]; [5]),thermal stability score (HeLa Kyoto [4]; cell cycle stage: mitosis)
MALWRGSAYAGFLALAVGCVFLLEPELPGSALRSLWSSLCLGPAPAPPGPVSPEGRLAAAWDALIVRPVRRWRRVAVGVNACVDVVLSGVKLLQALGLSPGNGKDHSILHSRNDLEEAFIHFMGKGAAAERFFSDKETFHDIAQVASEFPGAQHYVGGNAALIGQKFAANSDLKVLLCGPVGPKLHELLDDNVFVPPESLQEVDEFHLILEYQAGEEWGQLKAPHANRFIFSHDLSNGAMNMLEVFVSSLEEFQPDLVVLSGLHMMEGQSKELQRKRLLEVVTSISDIPTGIPVHLELASMTNRELMSSIVHQQVFPAVTSLGLNEQELLFLTQSASGPHSSLSSWNGVPDVGMVSDILFWILKEHGRSKSRASDLTRIHFHTLVYHILATVDGHWANQLAAVAAGARVAGTQACATETIDTSRVSLRAPQEFMTSHSEAGSRIVLNPNKPVVEWHREGISFHFTPVLVCKDPIRTVGLGDAISAEGLFYSEVHPHY [ADPGK],-0.0136,55.3,55.4,-0.191,1.05,-1.45
MTTSHQPQDRYKAVWLIFFMLGLGTLLPWNFFMTATQYFTNRLDMSQNVSLVTAELSKDAQASAAPAAPLPERNSLSAIFNNVMTLCAMLPLLLFTYLNSFLHQRIPQSVRILGSLVAILLVFLITAILVKVQLDALPFFVITMIKIVLINSFGAILQGSLFGLAGLLPASYTAPIMSGQGLAGFFASVAMICAIASGSELSESAFGYFITACAVIILTIICYLGLPRLEFYRYYQQLKLEGPGEQETKLDLISKGEEPRAGKEESGVSVSNSQPTNESHSIKAILKNISVLAFSVCFIFTITIGMFPAVTVEVKSSIAGSSTWERYFIPVSCFLTFNIFDWLGRSLTAVFMWPGKDSRWLPSLVLARLVFVPLLLLCNIKPRRYLTVVFEHDAWFIFFMAAFAFSNGYLASLCMCFGPKKVKPAEAETAGAIMAFFLCLGLALGAVFSFLFRAIV [SLC29A1],-0.149,58.4,61.1,-0.151,1.53,0.495
MNQEKLAKLQAQVRIGGKGTARRKKKVVHRTATADDKKLQSSLKKLAVNNIAGIEEVNMIKDDGTVIHFNNPKVQASLSANTFAITGHAEAKPITEMLPGILSQLGADSLTSLRKLAEQFPRQVLDSKAPKPEDIDEEDDDVPDLVENFDEASKNEAN [BTF3L4],0.114,56.3,54.6,0.243,-0.215,-1.23
MTATVENLTFQKDTLGNAVDKNTSRLELRSYSLAGRHGSTEPLVLAWSSQFRRLTWGCALDALHRSPCVAASQHGVTHLIRSSRTPHSTRCRKEDAQPGHHGNGAASVTAQARGQRSVLQVPLPVPRSCLFSESFVVSVSSQSRFLASVPGTGVQRSTAADMAASTAAGKQRIPKVAKVKNKAPAEVQITAEQLLREAKERELELLPPPPQQKITDEEELNDYKLRKRKTFEDNIRKNRTVISNWIKYAQWEESLKEIQRARSIYERALDVDYRNITLWLKYAEMEMKNRQVNHARNIWDRAITTLPRVNQFWYKYTYMEEMLGNVAGARQVFERWMEWQPEEQAWHSYINFELRYKEVDRARTIYERFVLVHPDVKNWIKYARFEEKHAYFAHARKVYERAVEFFGDEHMDEHLYVAFAKFEENQKEFERVRVIYKYALDRISKQDAQELFKNYTIFEKKFGDRRGIEDIIVSKRRFQYEEEVKANPHNYDAWFDYLRLVESDAEAEAVREVYERAIANVPPIQEKRHWKRYIYLWINYALYEELEAKDPERTRQVYQASLELIPHKKFTFAKMWILYAQFEIRQKNLSLARRALGTSIGKCPKNKLFKVYIELELQLREFDRCRKLYEKFLEFGPENCTSWIKFAELETILGDIDRARAIYELAISQPRLDMPEVLWKSYIDFEIEQEETERTRNLYRRLLQRTQHVKVWISFAQFELSSGKEGSLTKCRQIYEEANKTMRNCEEKEERLMLLESWRSFEEEFGTASDKERVDKLMPEKVKKRRKVQTDDGSDAGWEEYFDYIFPEDAANQPNLKLLAMAKLWKKQQQEKEDAEHHPDEDVDESES [CRNKL1],-0.64,47.4,48,0.252,1.73,2.31
MQGARAPRDQGRSPGRMSALGRSSVILLTYVLAATELTCLFMQFSIVPYLSRKLGLDSIAFGYLQTTFGVLQLLGGPVFGRFADQRGARAALTLSFLAALALYLLLAAASSPALPGVYLLFASRLPGALMHTLPAAQMVITDLSAPEERPAALGRLGLCFGVGVILGSLLGGTLVSAYGIQCPAILAALATLLGAVLSFTCIPASTKGAKTDAQAPLPGGPRASVFDLKAIASLLRLPDVPRIFLVKVASNCPTGLFMVMFSIISMDFFQLEAAQAGYLMSFFGLLQMVTQGLVIGQLSSHFSEEVLLRASVLVFIVVGLAMAWMSSVFHFCLLVPGLVFSLCTLNVVTDSMLIKAVSTSDTGTMLGLCASVQPLLRTLGPTVGGLLYRSFGVPVFGHVQVAINTLVLLVLWRKPMPQRKDKVR [SLC22A18],-0.019,54.2,–,-0.181,0.106,-0.446
MAGKKNVLSSLAVYAEDSEPESDGEAGIEAVGSAAEEKGGLVSDAYGEDDFSRLGGDEDGYEEEEDENSRQSEDDDSETEKPEADDPKDNTEAEKRDPQELVASFSERVRNMSPDEIKIPPEPPGRCSNHLQDKIQKLYERKIKEGMDMNYIIQRKKEFRNPSIYEKLIQFCAIDELGTNYPKDMFDPHGWSEDSYYEALAKAQKIEMDKLEKAKKERTKIEFVTGTKKGTTTNATSTTTTTASTAVADAQKRKSKWDSAIPVTTIAQPTILTTTATLPAVVTVTTSASGSKTTVISAVGTIVKKAKQ [SAP30BP],0.144,52.6,53.6,-0.0287,0.846,1.18
MLKALFLTMLTLALVKSQDTEETITYTQCTDGYEWDPVRQQCKDIDECDIVPDACKGGMKCVNHYGGYLCLPKTAQIIVNNEQPQQETQPAEGTSGATTGVVAASSMATSGVLPGGGFVASAAAVAGPEMQTGRNNFVIRRNPADPQRIPSNPSHRIQCAAGYEQSEHNVCQDIDECTAGTHNCRADQVCINLRGSFACQCPPGYQKRGEQCVDIDECTIPPYCHQRCVNTPGSFYCQCSPGFQLAANNYTCVDINECDASNQCAQQCYNILGSFICQCNQGYELSSDRLNCEDIDECRTSSYLCQYQCVNEPGKFSCMCPQGYQVVRSRTCQDINECETTNECREDEMCWNYHGGFRCYPRNPCQDPYILTPENRCVCPVSNAMCRELPQSIVYKYMSIRSDRSVPSDIFQIQATTIYANTINTFRIKSGNENGEFYLRQTSPVSAMLVLVKSLSGPREHIVDLEMLTVSSIGTFRTSSVLRLTIIVGPFSF [EFEMP1],-0.278,54.2,54.1,-0.165,4.52,3.96
MLSRAVCGTSRQLAPVLGYLGSRQKHSLPDLPYDYGALEPHINAQIMQLHHSKHHAAYVNNLNVTEEKYQEALAKGDVTAQIALQPALKFNGGGHINHSIFWTNLSPNGGGEPKGELLEAIKRDFGSFDKFKEKLTAASVGVQGSGWGWLGFNKERGHLQIAACPNQDPLQGTTGLIPLLGIDVWEHAYYLQYKNVRPDYLKAIWNVINWENVTERYMACKK [SOD2],0.614,58.3,56.8,0.133,-0.479,-0.233
ITCH,-0.468,49.8,51.6,0.0566,0.594,0.999
MAAAAARVVLSSAARRRLWGFSESLLIRGAAGRSLYFGENRLRSTQAATQVVLNVPETRVTCLESGLRVASEDSGLSTCTVGLWIDAGSRYENEKNNGTAHFLEHMAFKGTKKRSQLDLELEIENMGAHLNAYTSREQTVYYAKAFSKDLPRAVEILADIIQNSTLGEAEIERERGVILREMQEVETNLQEVVFDYLHATAYQNTALGRTILGPTENIKSISRKDLVDYITTHYKGPRIVLAAAGGVSHDELLDLAKFHFGDSLCTHKGEIPALPPCKFTGSEIRVRDDKMPLAHLAIAVEAVGWAHPDTICLMVANTLIGNWDRSFGGGMNLSSKLAQLTCHGNLCHSFQSFNTSYTDTGLWGLYMVCESSTVADMLHVVQKEWMRLCTSVTESEVARARNLLKTNMLLQLDGSTPICEDIGRQMLCYNRRIPIPELEARIDAVNAETIREVCTKYIYNRSPAIAAVGPIKQLPDFKQIRSNMCWLRD [PMPCB],0.179,51.7,52.1,-0.0473,-0.694,-1.33
MEGMDVDLDPELMQKFSCLGTTDKDVLISEFQRLLGFQLNPAGCAFFLDMTNWNLQAAIGAYYDFESPNISVPSMSFVEDVTIGEGESIPPDTQFVKTWRIQNSGAEAWPPGVCLKYVGGDQFGHVNMVMVRSLEPQEIADVSVQMCSPSRAGMYQGQWRMCTATGLYYGDVIWVILSVEVGGLLGVTQQLSSFETEFNTQPHRKVEGNFNPFASPQKNRQSDENNLKDPGGSEFDSISKNTWAPAPDTWAPAPDQTEQDQNRLSQNSVNLSPSSHANNLSVVTYSKGLHGPYPFGQS [C6ORF106],0.214,49.4,–,-0.211,0.563,0.668
ZFC3H1,-0.247,49.3,49.9,0.0411,0.428,0.858
